The record followed here is patent publication US20240190943A1 (HANGZHOU EXEGENESIS BIO, published 2024).

One assay has as its target T1, angiopoietin 2 (UniProt O15123 19-496, limits assumed).
T1 construct: also called Ang2; ANGPT2
T1 sequence (looked up): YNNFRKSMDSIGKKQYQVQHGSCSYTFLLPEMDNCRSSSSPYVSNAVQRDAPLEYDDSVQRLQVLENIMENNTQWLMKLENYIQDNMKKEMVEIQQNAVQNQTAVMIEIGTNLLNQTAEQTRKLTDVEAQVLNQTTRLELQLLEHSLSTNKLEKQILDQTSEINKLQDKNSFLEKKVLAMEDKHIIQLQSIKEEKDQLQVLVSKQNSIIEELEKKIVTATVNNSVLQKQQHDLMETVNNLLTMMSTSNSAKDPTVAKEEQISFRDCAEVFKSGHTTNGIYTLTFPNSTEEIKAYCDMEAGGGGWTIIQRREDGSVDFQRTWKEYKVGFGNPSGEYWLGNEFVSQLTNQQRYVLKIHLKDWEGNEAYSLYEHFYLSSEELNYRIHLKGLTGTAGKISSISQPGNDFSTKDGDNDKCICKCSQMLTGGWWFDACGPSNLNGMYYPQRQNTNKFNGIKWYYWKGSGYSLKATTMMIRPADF
As to the kind of experiment: Ang2 ELISA, shown relative to Exg102-04; middle bar of each group. A general note: An ELISA detects its analyte on a solid surface through an enzyme-linked reagent.

The target in another assay is T2, VEGF-A (UniProt P15692-4 27-191, limits assumed).
T2 construct: also called rVEGF; vascular endothelial growth factor
Description: VEGF-A binding ELISA (OD450), titration in pM of the product of plasmid-transfected cells.

T2 sequence (P15692 other isoform, or with tags, fused parts or gaps limits assumed): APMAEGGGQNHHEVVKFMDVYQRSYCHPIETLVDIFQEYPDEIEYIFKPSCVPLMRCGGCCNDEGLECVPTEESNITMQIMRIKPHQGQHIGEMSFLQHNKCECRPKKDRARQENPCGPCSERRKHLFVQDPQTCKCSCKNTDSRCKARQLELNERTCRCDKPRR

B1: Exg102-13 (other)
fusion polypeptide (Flt1 signal - VEGFR1 D2 - VEGFR2 D3 - Fc-Hinge - Ang BD): SDTGRPFVEMYSEIPEIIHMTEGRELVIPCRVTSPNITVTLKKFPLDTLIPDGKRIIWDSRKGFIISNATYKEIGLLTCEATVNGHLYKTNYLTHRQTNTIIDVVLSPSHGIELSVGEKLVLNCTARTELNVGIDFNWEYPSSKHQHKKLVNRDLKTQSGSEMKKFLSTLTIDGVTRSDQGLYTCAASSGLMTKKNSTFVRVHEKDKTHTCPPCPAPELLGGPSVGGGGGSGGGGGAQQEECEWDPWTCEHMGSGSATGGSGSTASSGSGSATHQEECEWDPWTCEHMLE
notes: Carries only the N-terminal 21 amino acids of the Fc (Fc-Hinger) and no full Fc; also called Exemplary polypeptide 4
Regarding B1, in the assay with angiopoietin 2, the binding result is on record as “no binding”.

B2: control polypeptide without an Ang BD (Fc fusion)
chain: SDTGRPFVEMYSEIPEIIHMTEGRELVIPCRVTSPNITVTLKKFPLDTLIPDGKRIIWDSRKGFIISNATYKEIGLLTCEATVNGHLYKTNYLTHRQTNTIIDVVLSPSHGIELSVGEKLVLNCTARTELNVGIDFNWEYPSSKHQHKKLVNRDLKTQSGSEMKKFLSTLTIDGVTRSDQGLYTCAASSGLMTKKNSTFVRVHE
notes: Signal peptide left out; also called EXG102-02; EXG102-03-1; not shown: Fc fragment of human IgG
A word on the EC50 (read off the curve): it is the concentration at which the effect is half-maximal. For B2, the binding result with angiopoietin 2 was “no binding”. The “EC50 (read off the curve)” value with VEGF-A was about 0.3 nM.
